Stoichiometry N data for one substance are collected here from article PMC7164637.

In the experiment the target is 2019-nCoV spike (S) glycoprotein, prefusion-stabilized ectodomain (residues 1-1208, two stabilizing proline mutations) (2019-nCoV). Put plainly: cryo-EM structure.

In turn, “2019-nCoV spike (S) glycoprotein, prefusion-stabilized ectodomain (residues 1-1208, two stabilizing proline mutations) (domain or fragment)” returned a stoichiometry N of 3.
